Measurements: patent US20260345742 (published 2026)
Ends that are not written are not given here.

How the values were obtained:
human ACE2 [1] = target: T1, human ACE2 (human, UniProt Q9BYF1); experiment: SPR, 37C
human ACE2 [2] = target: T1, human ACE2; experiment: SPR, 37C; remark: listed apart in the source
human ACE2 [3] = target: T1, human ACE2; experiment: SPR
human ACE2 [4] = target: T1, human ACE2; experiment: SPR; given as Ka

T1 sequence (Q9BYF1 18-740): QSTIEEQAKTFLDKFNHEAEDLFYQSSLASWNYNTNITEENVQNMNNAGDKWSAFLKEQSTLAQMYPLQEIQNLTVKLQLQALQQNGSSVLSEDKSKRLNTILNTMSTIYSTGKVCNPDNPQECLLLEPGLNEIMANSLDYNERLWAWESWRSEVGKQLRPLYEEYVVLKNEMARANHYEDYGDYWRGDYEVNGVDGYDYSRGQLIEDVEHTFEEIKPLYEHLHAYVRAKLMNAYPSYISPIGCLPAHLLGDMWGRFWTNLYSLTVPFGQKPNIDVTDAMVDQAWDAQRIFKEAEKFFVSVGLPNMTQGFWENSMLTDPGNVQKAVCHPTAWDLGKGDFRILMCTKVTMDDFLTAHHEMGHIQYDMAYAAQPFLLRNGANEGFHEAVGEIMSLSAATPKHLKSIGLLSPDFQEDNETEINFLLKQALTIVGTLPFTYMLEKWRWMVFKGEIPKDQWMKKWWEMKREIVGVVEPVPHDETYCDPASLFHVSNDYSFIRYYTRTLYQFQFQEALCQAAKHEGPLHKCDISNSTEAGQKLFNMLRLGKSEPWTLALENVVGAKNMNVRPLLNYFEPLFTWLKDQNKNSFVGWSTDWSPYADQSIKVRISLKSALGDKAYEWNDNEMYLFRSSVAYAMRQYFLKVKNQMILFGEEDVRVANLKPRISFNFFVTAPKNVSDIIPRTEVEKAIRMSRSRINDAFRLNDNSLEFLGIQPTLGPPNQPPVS

Kd (human ACE2 [1]) [µM]	Kd (human ACE2 [2]) [µM]	Kd (human ACE2 [3]) [nM]	Kd (human ACE2 [4]) [nM]	Binder
4.37	4.37			FPIPLPYYWLYRALIKRIQALIPKGGRLLPQLVYRLVLRYS (also: biotinylated (site not given here)) [B-YL (biotinylated)]
		9.87	9.9	FPIPLPYCWLCRALIKRIQAMIPKGGRMLPQLVCRLVLRCS [Super Mini-B (SMB)]
